Molecular target: ΔC SSB (Escherichia coli, UniProt P0AGE0)
Assay: EMSA; additional complexes at higher SSB:DNA ratios; EMSA: 20 mM Tris-HCl pH 8.0, 50 mM NaCl, 5% glycerol, 50 µg/ml BSA, 4 °C, 30 min, 1 pmol DNA with 0.2, 2 or 10 pmol SSB in 15 µl; fluorescence: Buffer A (composition not given in the material) with ~50 or ~200 mM NaCl
Conditions: protein: recombinant; chain copies: 4; label: 5'-32P

Sequence of ΔC SSB (P0AGE0 1-113, tags or fused parts left off): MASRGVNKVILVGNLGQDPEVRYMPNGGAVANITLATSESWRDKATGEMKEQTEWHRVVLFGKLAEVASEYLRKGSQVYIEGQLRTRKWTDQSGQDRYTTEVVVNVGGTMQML

B1: 79mer ssDNA (ssDNA)
DNA: GCACTAGTGCGGATAGCCCCGTGTTGTTGTCTGACCCCCGACCCCGACGGCAATGCGGGGCAATCCCCTGGAGGCCTGC
Question: Does B1 bind?
Answer: binds

Reference: publication PMC3236198
